Assay [1] addresses recombinant E. coli recA, His-tagged (E. coli) (UniProt P0A7G6). Put plainly: SPR. (Surface plasmon resonance follows binding to a sensor surface in real time, without labels.)
For assay [2], the target named is recombinant NgAgo-His (Natronobacterium gregoryi). Put plainly: SPR.

For orientation: Kd means a measure of binding affinity in units of concentration. The koff is the first-order rate constant of dissociation. By kon is commonly meant the rate constant with which the complex forms. In the case of recombinant NgAgo-His (natural protein), in assay [1], the Kd was 30.6 nM, the koff came out at 0.000707 s⁻¹ and the on-rate (kon) worked out at 23200 M⁻¹ s⁻¹.
As to “recombinant E. coli recA, His-tagged (from UniProt P0A7G6 1-353) (natural protein)”, in assay [2], the dissociation constant (Kd) was 42.4 nM, the koff is 0.00024 s⁻¹ and the on-rate constant (kon) was determined as 5740 M⁻¹ s⁻¹.

These data come from publication PMC6468240.
